# Experimental data reported in the nanobody polyreactivity screen of Harvey et al. (2022).
# Assay: yeast display, Sf9 membrane polyspecificity reagent, FACS + sequencing; frameworks hold sequencing errors
# Procedure, shortened: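 Polyreactivity labels are assigned by the sorting gate from which each nanobody was recovered. The gates were low and high (top ~1%), set on anti-HA fluorescence for expression and streptavidin fluorescence for reagent binding. Before sorting, galactose-induced (36–48 hours) yeast display cells were stained for 1 hour at 4 °C with 10% biotinylated, detergent-solubilized Sf9 membrane reagent.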
row,Sequence,polyreactivity (PSR sort gate)
1,HVQLVESGGGLVQAGGSLRLSCAASGLIFDWYAMGWYRQAPGKERELVADISYSGGSTNYADSVKGRFTISRDNAKNTVYLQMNSLKPEDTAVYYCAVDYYYPTLTIGYYYWGQGTQVTVSS,low polyreactivity
2,QVQLVESGGGLVQAGGSLRLSCAASGSIFKVYAMGWYRQAPGKERELVASISYSGGSTYYADSVKGRFTISRDNAKNTVYLQMNSLKPEDTAVYYCNADTITYQGYDYGYWGQGTQVTVSS,low polyreactivity
3,HVQLVESGGGLVQAGGSLRLSCAASGFIFRKYAMGWYRQAPGKERELVAAISGRADSTYYADSVKGRFTISRDNAKNTVYLEMISLKPEDTAVYYCAADWLSKIGKGYDYWGQGTQVTVSS,high polyreactivity
4,QVQLVDSGGGLVQAGGSLSLSCAASGSTYAYYAMGWYRQAPGKVRELVAGITWTGGSTYYADSVKGRFTISRDNAKNTVYLQMNSLKPEDTAVYYCAVTYPYGYEYDHWGQGTQVTVSS,low polyreactivity
5,QVQLVESGGGLVQAGGSLRLSCAASGYTIGNNAMGWYRQAPGKERELVARIRTNGGTTYYADSVKGRFTISRDYAKNTVYLQMISLKPEDTAVYYCIAYRGYEYDYWGQGTQVTVSS,low polyreactivity
6,QVQLVESGGGLVQAGGTLRLSCAASGSTLYPYDMGWYRQAPGKERELVAAIDSGGSTNYADSVKGRFTISRDNAKNTVYLQMNRLKPEDTAVYYCAADASGENDYWGQGTQVTVSS,low polyreactivity
7,QVQHVESGGGLVQAGGSLRLSCSASGFTLTAYAMGWSRQPPGKEREFVAAISTSGTRTYYADSVKGRFTISRDNAKNTVYLQMNSLKQEDTAVYYCAARYSGYQYWKFNYWGQGTQVTVSS,high polyreactivity
8,QVQLVESGGGLVQAGGSLRLSCAASGITFYGYAMGWYRQAPGKERELVAAISSRGGSTYYADSVKGRFTISRDNAKNTVYLQMNRLKPEDTAVYYCAAVYYTGEYYYWGQGTQVTVSS,high polyreactivity
9,QVQLVDSGGGLVQAGGSLRLSCAASGRIFRYYAMGWSRQAPGKERELVARITNGAITNYADSVKGRFTISRDNAKNTLYLQRNSLKPEETAVYYCAATQNLYRCGYWGQGTQVTVSS,high polyreactivity
10,QVQLVESGGGLVQAGGSLRLSCAASGRTFNIYAMGWYRQAPGKVRELVAAISSGGSTYYADSVKGRFTISRDNAKNTVYLQMNSLKPEDTAVYYCAAVEFELRGDYWGQGTQVTVSS,low polyreactivity
11,QVQLVESGGGLGQAGGSLRLSCAASGRTITFNTMGWYRPAPGKERELVAGIDRGGSTNYADSVKGRFTISRDNAKNTVDLQMNSLKPEDTAVYYCAARNLRYRYRNYDYWGQGTQVTVSS,high polyreactivity
12,QVQLVESGGGLVQAGCSLRLSCAASGRTFARYVMGWYRQAPGKEREFVATISTSGTSTYYADSVKGRFTISRDNAKNTVYLQMNSLKPAETAVYYCAARRTTRGYDYWGQGTQVTVSS,high polyreactivity
13,QVQLVESGGGLVQAGGSLRLSCAASGSIFPLYDMGWYRQAPGKERELVAGITGSGGSSYYADSVKGRFTISRDNAKNTVYLQMNSLKPEDTAVYYCAADYSLYGWWFRNDYWGQGTQVTVSS,low polyreactivity
14,QVQLVESGGGLVQAGGSLRLSCAASGSIFSSNTMGWYRPAPGKERELVAAITSGGGTYYADSVKGRFTISRDNAKNTVSLQMNSLKPEDTAVYYCAAQRVYKSSPSYDYWGQGTLVTVSS,low polyreactivity
15,QVQLVESGGGLVQAGGSLRLSCAASGRIFRYNAMGWYRQAPGKERELVAAISSGGSTNYADSVKGRFTTSRDNAKNTVYLQMNSLKPEDTAVYYCNAESVHRYPGWGYDYWGQGTQVTVSS,low polyreactivity
16,QVQLVESGGGLVQAGGSLRLSCAASGSIFPKNAMGWSRQAPGKVREFVATITKRGGRTYYADSVKGRFTISRDNAKNTVYLQMNSQKPEEPAVYYCARDQGKLVVPYDYWGQGTQLTVSS,high polyreactivity
17,QVQLEESGGCLVQAGGSLRLSCAASGSIFWYNAMGRSRQAPGKERELVAAISYSGDRTYYADSVKGRFTISRDNAKNTGYLLMNSLKPEVTAVYYCAKAGTCFYNSWWEDSWGQGTQVTLSS,low polyreactivity
18,QVQLVESGGGLVQAGGSLRLSCAASRFLFWSYAMGWYRQAPGKERELVAAISWRGGSTYYADSVKGRFSISRDTAKNTVYLQMNSLKPEDTAVYYCAAERYNGYDYWGQGTQVTVSS,high polyreactivity
19,QVQLVESGGGLVQSGGSLRLSCAASGYTFLEYTMGWYRQAPGKERELVAAITSGGSTKYADSVKGRFTISRDNAKNTVYLQMNSLKPEDTAVYYCNARHYSREFDYWGQGTQVTVSS,low polyreactivity
20,QVQLQESGVGLVQAYGSLRLSCAAIGSIFGYYYMGSYRQAPGKDRELVATINICGITNYADSVKGRFTISRDNAKYTVYLQMKSLKRDDTAVFYCAADEYAQRDLGYWGQGTQVTVSS,low polyreactivity
21,QVQLVESGGGLVQAGGSLRLSCAASGSTFHWYVMGWYRQAPGKERELVAAITWSGGSTYYADSVKGRLTISRDNAKNTVYLQMNSLKPEDTAVYYCNAVFWIWNAGYDYWGQGTQVTVSS,low polyreactivity
22,QVQLVESAGGLVQAGGSLRLSCAASGFTFGDNAMGWYRQAPGKERELVAAITSSGSTNYADSVKGRFTISRDNAKNTVYLQMNSLKPEDTAVYYCNAEDSVDAPVYKDLGSEYDSWGQGTQVTVSS,low polyreactivity

row,Sequence,polyreactivity (PSR sort gate)
1,QVQLVESGGGLVQAGGSLRLSCAASGSIFGIYAMGWYRQAPGKERELVAAIRRGGSTYYADSVKGRFTISRDNAKNTVYLQMNSLKPEDTAVYYCAGRKYRLWGKGVDYDFCGQGTQVTVSS,high polyreactivity
2,QVQLVESGGGLVQAGGSLRLSCAASGFTFIRYAMGWYRQAPGKERELVATITRRGGSTYYADSVKGRFTISRDNAKNTVYLQMNSLKPEDTAVYYCNRDYVTYGKYYYWGQGTQVTVSS,high polyreactivity
3,QVKLVESGGGLVQAGGSLRLSCAASGFIFSKNAMGWYRQAPGKERELVAAISGRGGTTYYADSVKGRFTISRDNAKNTVYLQMNSLIPEDTAVYYCATDNSSHPYDYWGQGTQVTVSS,high polyreactivity
4,QVQLVESGGGLVQAGGSLRLSCAASGSTFYTNAMGWYRQAPGKERELVAAISYGGGSTYYADSVKGRFTISRDNAKNTVYLQMHSLKPEDTAVYYCAARAPEKSWWRYRYGYWGQGTQVTVSS,high polyreactivity
5,QVQLVETGGGLVQAGGSLRLSCAASGITFSDNAMGWYIQAPVKERELVADISYGGGNTYYADSVQGRFTISRDNAKYTVYLQMNSLKPEDTAVYYCAAVYYFLWYGYYLALDYWGQGTQVTVSS,high polyreactivity
6,QVQLVESGGGLVQAGGRLRLSCAASGITFKRYAMGWYRQAPRKERELVAAISDIGGRTYYADSVKGRFSISRDNAKNTVYLQMYSLKPEDTAVYYCAADYYSPVDWYYYWGQGTQVTVSS,high polyreactivity
7,QVQLVESGGGLVQAGGSLRLSCAASGRTFFNYGMGWYRQAPGKEREFVARISFSGGSTYYADSVKGRFTISRDNAKNTVYLQMNSVKPEDTAVYYCNARVFPFAYRYGYWGQGTQVTVSS,high polyreactivity
8,QVQLVESGGGLVQAGGSLRLSCAASGSTFRYYAMGWYRQAPGKERELVAAISWSGGSTYYADSVKGRFTISRDNAKNTVYLQMNSLKPEDTEVYYCNKAWFPYYYYRFDYWGQGTQVTVSS,high polyreactivity
9,QVQLVESGGGLVQAGGSLRLSCDASGSTSKTYAMGWYRQAPGKERELVAVISYGGTTYYADSVKGRFTISRDNAKNTVYLQLNSLKPEDTAVYYCAARAWHRRGVPHYYWGQGSQVTVSS,high polyreactivity
10,QDQLVESGGGLVQAGGSLRLSCAASGFIFYYNAMAWYRHAPGKERELVAAISYVGGSTYYADSVKGRFTISRDNAKNTVYLQLNSLKPEDTAFYYCAARVYWWIASLAGNYWGQGTQVSVSS,low polyreactivity
11,QVQLVESVGGLVQAGCSLRLSCAASGSTFEVYAMGWYRQAPGKESELVATITWSGGSTYYADSVKGRFTISRDNAKTTVYLQMNSLKPEDTAVYYCNAVIRYYFWGKYYLYYYWGQGTQVTVSS,high polyreactivity
12,QVQLVESGGGLVQAGGSLRLSCAASGFTFGVNAMGWYRQAPGKERELVAVITSGGNTYYADSVKGRFTISRDNAKNTVYLQMNSLKPEDTAVYYCAADLSDTSYATRYQGDYWGQGTQVTVSS,low polyreactivity
13,QVQLVESGGGLVQARGSLRLSCAASGGIFYRNAMGWYRQAPGKERELVAAITQSGGRTYYADSVKGRFTISRDNAKNTVYLQMNSLKPEDTADYYCAKSRYTPTGSLQLNYWGQGTQVTVSS,high polyreactivity
14,QVQLVESGGGLVQAGGSLRLSCAASGSIFIQYAMGWYRQAPGKERELVAAITSGGGSTYYADSVKGRFTISRDNAKNTVYLQMNSLKPEDTAVYYCAVDRTRRPAVPYVTLDRGYCGQGTQVTVSS,low polyreactivity
15,QVQLVESGGGLVQAGGSLRLSCAASGSIFYSNAMGWYRQAPGKERQLVAAIDSGTSTNYADSVKGRFTISRDNAKNTVYLQMNSLKPEDTAVYYCARLLGPVRDKYDYDYWGQGTQVTVSS,low polyreactivity
16,QVQLVESGGGLVQAGGSLRLSCAASGFTFRHNGMGWYIQAPGKERELVATITWSGGRTSYADSVKGRFTISRDNAKNTVYLQMNSLKPEDTAVYYCAARFFSYSQYAYNYWGQGTQVTVSS,high polyreactivity
17,QVQLVETGGGLVQAGGSLRLSCAASGRTIRKYAMGWYRQAPGKERELVAAISWSGGSTYYANSVKGRFTISRDNAKNTVYLQMKSLKPVDTEVYYCAAVPVHTGSLYWGFTTGYDYWGQGTQVTVSS,low polyreactivity
18,QVQLVESGGGLVQAGGSLRLSCAASGRIFAANAMGWYRQAPGKERELVATISTGGGRTYYADSVKGRFTISRDNAKNTVYLQMNSLKPEDTAVYYCAASRGYLVPTRLAYYYWGQGTQVTVSS,high polyreactivity
19,QVQLVESGGGLVQAGGSLRLSCAASGRVLPPNAIGWYRQAPGKERELVAAINWSSGRTYYADSVKGRFTISRDYAKNSVYLQMNSLKPEDTAVYDCAKAYRYAYGYDYWGQGTQVTVSS,high polyreactivity
20,QVQLVESGGGLVQAGGSLRLSCAASGSTFTRNAMGWYRQAPGKERELVAAITSSGGSTYYADSVKGRFTISRDNAKITVYLQMNSLKPEDTAVYYCAAYPHRPRDRELDHWGQGTQVTVSS,low polyreactivity
21,QVQRVESAGGLVQARGSLRLSSAASGRIFKAYAMGCYRQAPGKERELVAAISRSGGNTYYADSVKGRFTISRDNAKYTVYLQLNSLKPEETAVYYCAARRFWGSDYDYWGQGTQVTVSS,high polyreactivity
